Measured values: patent US6054163

target: piscicolin 126 (Carnobacterium piscicola JG126)

Substance | residual bacteriocin activity after enzyme treatment (% of original activity; bioassay with Listeria monocytogenes 4A)
Catalase (enzyme) | 100%
Lipase (enzyme) | 100%
Lysozyme (enzyme) | 100%
Pepsin (enzyme) | 100%
Protease I (enzyme) | 0%
Protease XIV (enzyme) | 3%
Protease XXIII (enzyme) | 0%
Trypsin (enzyme) | 6%
α-Chymotrypsin (enzyme) | 0%
β-Chymotrypsin (enzyme) | 0%
